Drawing on article PMC3505484, this text covers input giving the 50% level of inhibition of the cytolytic activity of 1 ng/ml (0.06 nM) IL-1β to A375.S2 cells (MTT, 72 h); the pair blocked is IL-1β and the IL-1 receptor and input giving the 100% level of inhibition of the cytolytic activity of 1 ng/ml (0.06 nM) IL-1β to A375.S2 cells (MTT, 72 h); the pair blocked is IL-1β and the IL-1 receptor for one substance.

This experiment has as its target IL-1 receptor on human melanoma A375.S2 cells (human (endogenous in A375.S2)) (UniProt P14778).
UniProt P14778, sequence (P14778 18-569): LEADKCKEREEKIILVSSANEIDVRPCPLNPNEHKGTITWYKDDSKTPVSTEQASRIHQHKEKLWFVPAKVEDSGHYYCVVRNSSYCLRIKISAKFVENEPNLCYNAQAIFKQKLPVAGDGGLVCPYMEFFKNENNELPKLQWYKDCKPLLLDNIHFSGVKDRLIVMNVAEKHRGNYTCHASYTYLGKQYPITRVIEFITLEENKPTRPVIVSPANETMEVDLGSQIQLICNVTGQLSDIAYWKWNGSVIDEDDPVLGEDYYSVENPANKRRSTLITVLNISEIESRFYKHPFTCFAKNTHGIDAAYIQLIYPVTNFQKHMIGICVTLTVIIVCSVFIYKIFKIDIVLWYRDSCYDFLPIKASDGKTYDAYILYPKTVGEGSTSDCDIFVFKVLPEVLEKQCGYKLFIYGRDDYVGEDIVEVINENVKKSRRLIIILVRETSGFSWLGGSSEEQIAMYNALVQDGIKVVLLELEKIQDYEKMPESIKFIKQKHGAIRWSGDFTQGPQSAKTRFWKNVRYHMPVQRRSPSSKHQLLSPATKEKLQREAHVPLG

As to “IL-1ra-HSA fusion protein (human serum albumin fused to the carboxyl terminal of human IL-1ra) (from UniProt P02768 25-609)”, the input giving the 50% level of inhibition of the cytolytic activity of 1 ng/ml (0.06 nM) IL-1β to A375.S2 cells (MTT, 72 h); the pair blocked is IL-1β and the IL-1 receptor worked out at 2 nM; the input giving the 100% level of inhibition of the cytolytic activity of 1 ng/ml (0.06 nM) IL-1β to A375.S2 cells (MTT, 72 h); the pair blocked is IL-1β and the IL-1 receptor was determined as 32 nM.
